This is an account of results in PMC4279229 (Molecular Biology of the Cell, 2015).

The test deals with mouse VASP (wild-type, full-length) (mouse, UniProt P70460 1-375). Briefly: immunolabeling of protein-coated beads.
mouse VASP (wild-type, full-length), sequence (P70460 whole entry): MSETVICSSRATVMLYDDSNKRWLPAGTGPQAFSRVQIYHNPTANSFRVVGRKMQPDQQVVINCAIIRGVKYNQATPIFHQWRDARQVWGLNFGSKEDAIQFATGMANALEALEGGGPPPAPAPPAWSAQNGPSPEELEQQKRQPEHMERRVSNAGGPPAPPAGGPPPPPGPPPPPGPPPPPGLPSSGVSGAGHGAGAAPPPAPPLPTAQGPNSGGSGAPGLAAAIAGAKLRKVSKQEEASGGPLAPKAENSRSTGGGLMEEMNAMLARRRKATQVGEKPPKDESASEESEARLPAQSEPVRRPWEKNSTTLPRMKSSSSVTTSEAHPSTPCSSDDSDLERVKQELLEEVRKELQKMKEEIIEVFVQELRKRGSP

B1: PRD-VCA-WAVE (PRD-VCA domain of human WAVE-2, Lys195-Asp498) (domain or fragment, UniProt Q9Y6W5 195-498, looked up)
chain: KIKTRKEEWEKMKMGQEFVESKEKLGTSGYPPTLVYQNGSIGCVENVDASSYPPPPQSDSASSPSPSFSEDNLPPPPAEFSYPVDNQRGSGLAGPKRSSVVSPSHPPPAPPLGSPPGPKPGFAPPPAPPPPPPPMIGIPPPPPPVGFGSPGTPPPPSPPSFPPHPDFAAPPPPPPPPAADYPTLPPPPLSQPTGGAPPPPPPPPPPGPPPPPFTGADGQPAIPPPLSDTTKPKSSLPAVSDARSDLLSAIRQGFQLRRVEEQREQEKRDVVGNDVATILSRRIAVEYSDSEDDSSEFDEDDWSD
Turning to B1, the binding result is listed as “binds”.
